Experimental data taken from patent US20120190612A1, “METHODS OF TREATMENT” (CRC FOR ASTHMA AND AIRWAYS LTD., priority 2009, published 2012).

Assays:
[1] = test system: human primary lymphatic endothelial cells (HMVEC-LLy cells); assay: MTT cell viability assay, lymphatic endothelial cells; assay type: cell-based
Protocol: To determine the function of lamstatin, human primary lymphatic endothelial cells (HMVEC-LLy cells) were exposed to various concentrations of lamstatin and an MTT assay was performed. As a comparison, commercially available tumstatin was used. Specifically, to assess cell viability 4×10^3 HMVEC-LLy cells were seeded per well in 100 μl complete EBM-2 media (with bullet kit, Lonza) and incubated for 2 hrs at 37° C., 5% CO2. After this period lamstatin, tumstatin and respective vehicles (1 nM EDTA, pH 3.0) were prepared in complete EBM-2 as serial dilutions in a separate plate and added. […] After 6 h of further incubation cells were lysed overnight with 10% SDS/0.01 M HCl and measured the following day in a plate reader at 570 nm.
The MTT assay was performed as described above.

HMVEC-LLy cells [2] = assay: Real-time impedance (xCellgenix) cell attachment and proliferation; assay type: cell-based, human
Protocol: HMVEC-LLy cells were treated with lamstatin and cell attachment and proliferation were measured in realtime using the xCellgenix system (Roche). This system measures a cell index factor, representing impedance mediated by cells. Gold electrodes on the well bottom measure this impedance and the more cells attach to the bottom the higher the impedance (cell index). This measurement allows for detecting early events after treatment such as detachment (e.g. through cell death) or inhibition of proliferation and reduction of cell number.
A Xcellgenix gold coated microtiter plate was seeded with 5×10^3 cells (HMVEC-LLy) per well and incubated in 100 μL complete EBM-2 for 24 hrs prior to treatment. In fresh media, serial dilutions of lamstatin or vehicle (1 nM EDTA, pH 3.0) were prepared. Cell culture supernatant was removed and replaced by 100 μL fresh serially diluted lamstatin. The plate was locked into the Xcellgenix recorder and a signal of impedance recorded at 5 min intervals for 6 hrs, and subsequently every 60 min.

HMVEC-LLy cells [3] = assay: Tube formation on Matrigel; assay type: cell-based, human; details: 24 hrs, n=2
Protocol: To assess formation of tubular structures, 48 well plates were coated with 130 μL Matrigel® (BD Bioscience), which was solidified at 37° C. over 45 min. 2×10^4 HMVEC-LLy cells in complete EBM-2 (500 μL) were seeded per well and allowed to attach for 30 min, before lamstatin, tumstatin, CP17 or vehicle was added to the wells. Photos were taken with a Kodak Digital Camera every 2 hrs. Tube formation peaked at 24 hrs, at which time tubular structures were further analysed to determine length (in pixels) and number of tubes per high power field (HPF) area (px^2). The HPF was divided in nine regions of equal size and tubes per region were counted. Mean and SEM were calculated and plotted.

integrin α5 = molecular target: T1, integrin α5 (Homo sapiens, UniProt P05556+P08648); assay: Integrin binding of HMVEC-LLy cells on antibody-coated plates; assay type: cell-based; details: lamstatin 10 μg/ml, CP17 5 μM, 1 h
T1 construct: endogenous in cells; host or cells: HMVEC-LLy (human primary lymphatic endothelial cells)
T1 sequence (P08648 42-894 limits assumed): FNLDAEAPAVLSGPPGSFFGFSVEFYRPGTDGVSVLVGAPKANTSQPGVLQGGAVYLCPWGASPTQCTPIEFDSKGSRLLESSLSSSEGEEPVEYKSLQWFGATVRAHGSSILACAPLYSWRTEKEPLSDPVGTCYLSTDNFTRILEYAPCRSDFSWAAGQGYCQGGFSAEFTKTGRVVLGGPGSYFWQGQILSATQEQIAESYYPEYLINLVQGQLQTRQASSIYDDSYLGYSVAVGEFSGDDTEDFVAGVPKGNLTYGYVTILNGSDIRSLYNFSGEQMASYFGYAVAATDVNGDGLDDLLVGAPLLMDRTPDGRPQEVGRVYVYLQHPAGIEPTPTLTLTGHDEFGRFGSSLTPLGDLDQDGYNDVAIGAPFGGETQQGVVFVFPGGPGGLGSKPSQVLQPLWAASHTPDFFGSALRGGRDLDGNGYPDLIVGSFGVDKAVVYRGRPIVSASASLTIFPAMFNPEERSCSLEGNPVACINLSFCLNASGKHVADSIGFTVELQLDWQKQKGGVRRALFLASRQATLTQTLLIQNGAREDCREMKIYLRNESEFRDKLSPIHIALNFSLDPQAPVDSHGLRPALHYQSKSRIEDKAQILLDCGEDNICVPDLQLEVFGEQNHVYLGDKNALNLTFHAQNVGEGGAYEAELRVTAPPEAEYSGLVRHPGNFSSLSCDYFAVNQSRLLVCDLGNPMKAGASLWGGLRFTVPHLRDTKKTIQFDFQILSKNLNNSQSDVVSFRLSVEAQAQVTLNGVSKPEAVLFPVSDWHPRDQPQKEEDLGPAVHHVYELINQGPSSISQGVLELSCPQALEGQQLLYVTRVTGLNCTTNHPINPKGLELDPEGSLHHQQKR
T1 sequence (P08648 895-1049 limits assumed): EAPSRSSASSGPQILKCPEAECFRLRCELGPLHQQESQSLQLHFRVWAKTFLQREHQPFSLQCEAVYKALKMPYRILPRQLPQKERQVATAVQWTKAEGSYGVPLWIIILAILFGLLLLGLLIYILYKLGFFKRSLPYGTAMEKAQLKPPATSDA
T1 sequence (P05556 21-798): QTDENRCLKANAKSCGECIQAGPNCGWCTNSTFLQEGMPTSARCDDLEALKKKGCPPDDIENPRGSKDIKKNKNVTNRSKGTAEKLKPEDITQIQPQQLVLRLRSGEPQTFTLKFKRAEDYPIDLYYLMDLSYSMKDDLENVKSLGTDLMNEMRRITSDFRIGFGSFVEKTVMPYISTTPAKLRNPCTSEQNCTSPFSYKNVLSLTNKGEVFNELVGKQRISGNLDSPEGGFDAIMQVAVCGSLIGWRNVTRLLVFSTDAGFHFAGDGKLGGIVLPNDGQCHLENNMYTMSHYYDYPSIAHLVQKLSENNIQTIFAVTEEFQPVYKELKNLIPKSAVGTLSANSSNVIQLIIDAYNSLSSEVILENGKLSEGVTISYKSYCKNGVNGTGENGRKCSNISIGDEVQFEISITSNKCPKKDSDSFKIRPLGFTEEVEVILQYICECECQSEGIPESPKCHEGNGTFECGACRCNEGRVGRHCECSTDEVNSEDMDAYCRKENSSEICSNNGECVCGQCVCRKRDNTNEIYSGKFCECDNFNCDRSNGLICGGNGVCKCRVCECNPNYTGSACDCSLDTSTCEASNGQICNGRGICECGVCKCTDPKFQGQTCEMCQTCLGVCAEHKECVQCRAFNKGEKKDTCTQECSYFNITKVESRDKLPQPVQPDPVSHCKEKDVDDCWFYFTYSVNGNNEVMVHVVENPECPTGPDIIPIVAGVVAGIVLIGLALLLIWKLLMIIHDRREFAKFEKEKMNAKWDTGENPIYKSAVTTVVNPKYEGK
Protocol: (§1) Antibodies for integrin α5 (MAB1956Z; MAB1953Z), integrin β1 (MAB2253Z) and integrin β3 (MAB1957Z) (all Millipore, USA) were coated to 96 well tissue culture plates (Nunc, USA) at a concentration of 10 μg/mL overnight at 4° C. in sterile coating buffer (50 mM Na2CO3, 50 mM NaHCO3, pH 9.6). Plates then were blocked with sterile 1% BSA/PBS for 1 h at 37° C. and washed twice with EBM-2 MV (Lonza, Basel, Switzerland). MMVEC-LLy cells were carefully removed from culture flasks with non-enzymatic detachment solution (Trevigen, Md., USA) and washed twice with EBM-2 (Lonza, Basel, Switzerland). Volume was adjusted to a cell concentration of 50,000 cells/100 μL and divided into aliquots for treatment with recombinant lamstatin (10 μg/ml), CP17 (5 μM) or vehicle (1 nM EDTA, pH 3.5) only. Cells were then transferred to the antibody-coated plates and incubated for 1 h at 37° C. Wells were then washed with HANKS twice to remove unbound cells and fixed with 4% paraformaldehyde (in PBS) for 15 min at room temperature. Wells thereafter were photographed with an Olypmus CAMEDIA C-4000 camera mounted to an Olympus CK2 microscope. Pictures were divided into 25 segments and cells of 5 center-near quadrants were counted and averaged. […] Using a similar approach, the inventors observed no expression of integrin α4 on the surface of HMVEC-LLy cells (data not shown).

integrin β1 = molecular target: T2, integrin β1 (Homo sapiens, UniProt P05556+P08648); assay: as above; assay type: cell-based; details: lamstatin 10 μg/ml, CP17 5 μM, 1 h
T2 construct: endogenous in cells; host or cells: HMVEC-LLy (human primary lymphatic endothelial cells)
T2 sequence (P05556 21-798): as above
T2 sequence (P08648 42-894 limits assumed): as the sequence (P08648 42-894 limits assumed) above
T2 sequence (P08648 895-1049 limits assumed): as the sequence (P08648 895-1049 limits assumed) above
Protocol: as §1

[4] = test system: lung adenocarcinoma cells (LNM35 AAV-GFP); assay: Mouse ear tumour plug model of tumour-induced lymphangiogenesis; assay type: in vivo
Protocol: A mouse ear tumour plug model was utilized in which green fluorescent protein (GFP)-tagged lung adenocarcinoma cells (LNM35 AAV-GFP) were injected between the two layers of skin of the ears of NOD/SCID mice. 1×10^6 tumour cells were embedded in […] growth factor free Matrigel® medium enriched with vehicle (1 nM EDTA, pH3.0) or lamstatin at either 10 μg/mL or 100 μg/mL. Mice were divided into three groups.
Group 1 (n=9): One ear of each mouse injected with tumour cells+10 μg/mL lamstatin; the other ear injected with tumour cells+vehicle control. Group 2 (n=9): One ear of each mouse injected with tumour cells+100 μg/mL lamstatin; the other ear injected with tumour cells+vehicle control. Group 3 (n=3): Each ear injected with Matrigel® only.
Injections were single shots such that at least 25 μL was injected. 12 days after injection were sacrificed by anesthetisation and cervical dislocation. Ears were removed for whole mount staining. Flaps of skin from each ear were carefully separated, fixed and stained for either the lymphatic endothelial cell specific marker LyVe-1 (rabbit polyclonal anti-LyVe-1 antibody detected using anti-rabbit Alexafluor 647) or the vascular endothelial cell specific marker PECAM (CD31 rat anti-mouse antibody clone MEC13.3 (Pharmingen), detected with […]). Tumour cells were visualised by detection of GFP expression. Images of representative regions of ears were obtained using a confocal microscope and LyVe-1 or PECAM staining was quantified.
Using the LyVe-1 whole mount stained mouse ear sections, the inventors further investigated the morphology of lymphatic vessel formation. Specifically confocal images were loaded into Image J software (www.sbweb.nih.gov/ij/), a 5×5 grid overlayed and vessels examined for branching and looping. The functionality of a lymphatic network is based on its maturity and in general it is accepted that a tumour induces a rather immature network formation. Reconnecting vessels (measured as loops) and increased branching (measured as branches) are signs of immature vessels induced by, for example, a tumour (see for example Shayan et al. Growth Factors 25, 417-425, 2007).
Branches were defined as two clearly distinguishable vessels that separate out without rejoining. Loops were defined as small, circular vessel structures in the same focal plane. Branches or loops were counted separately per image and mean values were calculated for each treatment group.

[5] = lamstatin 10 or 100 μg/mL, CP17 5 or 50 μA, vs vehicle

B1: lamstatin: NC1 domain of the α5 chain of collagen type IV; human amino acid sequence SEQ ID NO:1; recombinant (protein, listed as Homo sapiens)
chain: GFLITRHSQTTDAPQCPQGTLQVYEGFSLLYVQGNKRAHGQDLGTAGSCLRRFSTMPFMFCNINNVCNFASRNDYSYWLSTPEPMPMSMQPLKGQSIQPFISRCAVCEAPAVVIAVHSQTIQIPHCPQGWDSLWIGYSFMMHTSAGAEGSGQALASPGSCLEEFRSAPFIECHGRGTCNYYANSYSFWLATVDVSDMFSKPQSETLKAGDLRTRISRCQVCMKRT
[1]; 24 hrs, data not shown
  cell viability (MTT): reduced cell viability
[1]; increasing concentrations, 72 hrs
  cell viability (MTT): decreased cell viability
HMVEC-LLy cells [2]; 10 μg/mL
  time required to reach a threshold cell index of 1, compared with vehicle control: double
HMVEC-LLy cells [2]; after 55 min of treatment, various concentrations
  cell attachment: reduction in cell attachment
HMVEC-LLy cells [3]
  numbers of tube-like structures formed: reduce in a concentration related manner
Integrin α5
  cell binding in presence of monoclonal antibody against integrin α5: significantly inhibited cell binding
Integrin β1
  cell binding in presence of monoclonal antibody against integrin β1: significantly inhibited cell binding
[4]; 10 μg/mL
  lymphatic vessel formation around the tumour (visual inspection): reduction in the number of lymphatic vessels and a dilation of lymphatic vessels
[4]; 10 μg/mL or 100 μg/mL, 12 days
  PECAM staining in the vicinity of tumour cells: no obvious reduction
[4]; 100 μg/mL, compared to 10 μg/mL
  lymphatic vessel formation around the tumour (visual inspection): further reduction in lymphatic vessel network density
[4]; 10 and 100 μg/mL
  development of blood vasculature around the tumour: no discernable effect
[4]; both 10 μg/mL and 100 μg/mL, whole mount ears, 12 days
  reduction of mean intensity of LyVe-1 staining compared to vehicle only: approximately 60%
[4]; [5]
  number of branches of lymphatic vessels: significantly reduced
  number of loops of lymphatic vessels: significantly reduced
